Data as given in article PMC6842113 (Neuron, 2019).

B3: Stg_CT WT (domain or fragment, mouse, UniProt O88602 203-323, looked up)
chain: DRHKQLRATARATDYLQASAITRIPSYRYRYQRRSRSSSRSTEPSHSRDASPVGVKGFNTLPSTEISMYTLSRDPLKAATTPTATYNSDRDNSFLQVHNCIQKDSKDSLHANTANRRTTPV

Assays:
Stg_CT WT = molecular target: B3; experiment: ITC
PSD-95 NPDZ12 = PSD-95 NPDZ12 (UniProt P78352-1 1-247); experiment: NMR titration
PSD-95 PSG = PSD-95 PSG (UniProt P78352-1 309-724); experiment: ITC

B1: PSD-95 PDZ2 (domain or fragment, UniProt P78352-1 155-247, looked up)
chain: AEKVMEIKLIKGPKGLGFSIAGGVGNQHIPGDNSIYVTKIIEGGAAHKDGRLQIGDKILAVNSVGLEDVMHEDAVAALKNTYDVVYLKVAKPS
B1: binds (Stg_CT WT).

B2: Stg_CT Δ4 (domain or fragment, mouse, UniProt O88602 203-319, looked up)
chain: DRHKQLRATARATDYLQASAITRIPSYRYRYQRRSRSSSRSTEPSHSRDASPVGVKGFNTLPSTEISMYTLSRDPLKAATTPTATYNSDRDNSFLQVHNCIQKDSKDSLHANTANRR
B2: binds (PSD-95 NPDZ12).

Work on B3 yielded a Kd (PSD-95 PSG) of ~5.3 µM.
